Measured values: paper PMC10605006, “RNA structure and multiple weak interactions balance the interplay between RNA binding and phase separation of SARS-CoV-2 nucleocapsid”

Assays:
[1] = target: FL-N (nucleocapsid, full length) (SARS-CoV-2, UniProt P0DTC9 1-419); experiment: fluorescence anisotropy; fit with locked stoichiometry n=4 RNA:FL-N; authors call it an estimate; Anisotropy: 50 mM Na phosphate pH 6.5, 150 mM NaCl, 1 mM NaN3, 50 nM RNA; EMSA: 20 mM Tris pH 7.5, 150 mM NaCl, 1 mM DTT, room temp, 25 uM RNA; NTD NMR: 20 mM Na phosphate pH 6.5, 20 mM NaCl, 25 C; CTD NMR: 20 mM Na phosphate pH 6, 200 mM NaCl; conditions: protein: recombinant; tags: His-tag (TALON, imidazole eluted); chain copies: 2; label: 5',6-carboxyfluorescein (6-FAM) for anisotropy; unlabeled for NMR; single strand, no self-pairing
[2] = target: NTD (SARS-CoV-2, UniProt P0DTC9 47-174); experiment: fluorescence anisotropy; 1:1 fit; Anisotropy: 50 mM Na phosphate pH 6.5, 150 mM NaCl, 1 mM NaN3, 50 nM RNA; EMSA: 20 mM Tris pH 7.5, 150 mM NaCl, 1 mM DTT, room temp, 25 uM RNA; NTD NMR: 20 mM Na phosphate pH 6.5, 20 mM NaCl, 25 C; CTD NMR: 20 mM Na phosphate pH 6, 200 mM NaCl; conditions: protein: recombinant; tags: none (tag removed by bdSENP1); label: 5',6-carboxyfluorescein (6-FAM) for anisotropy; unlabeled for NMR; single strand, no self-pairing

Binder: GGCACAUGGACGUC (ssRNA) [ss-14mer]
- Kd [1]: ~0.08 µM
- Kd [2]: 22 µM
